# Assay results: PMC5899157, “Directed evolution of broadly crossreactive chemokine-blocking antibodies efficacious in arthritis” (Nature Communications, 2018)
# B1: SA138, mouse serum albumin fused to the CK138 single-chain variable antibody fragment (scFv, V domains shown)
# VH: EVQLVESDGGLVQPGGSLRLSCAASGFNLSYYGMHWVRQAPGKGLEWVAYIASYPGYTSYADSVKGRFTISADTSKNTAYLQMNSLRAEDTAVYYCARSGYSYSPYYSWFSAGMNYWGQGALVTVSS
# VL: AIQMTRSPSSLSASVGDRVTITCRASQYHDGSAAWYQQKPGKAPKLLIYGASYLYSGVPSRFSGSRSGTDFTLTISSLQPEDFATYYCQQSSYSLITFGQGTKVEIK
# notes: VL of CK138, as in m2; linker between VL and VH; the scFv was amplified from the pCT-CON vector; VH of CK138, as in m2; Construct SA-(G4S)3-scFv-G4S-His6; also called ^NSA-scFv^C; source: HEK293 (suspension-adapted), transient transfection, purified (Ni Sepharose excel, SEC); not shown: mouse serum albumin, N-terminal, kept; His6, C-terminal, kept
# B2: CK129 single-chain variable antibody fragment, displayed on yeast (scFv, V domains shown)
# VH: EVQLVESGGGLVQPGGSLRLSCAASGFNISSYGSMHWVRQAPGKGLEWVASIYPYSSSTYYADSVKGRFTISADTSKNTAYLQMNSLRAEDTAVYYCARGYGPWYAYSYFALDYWGQGTLVTVSS
# VL: DIQMTQSPSPLSASVGDRVTITCRASQYGGYVAWYQQKPGKAPKLLIYGASLLYSGVPSRFSGGRSGTDFTLTISSLQPEDFATYYCQRGHALITFGQGTKVEIE
# notes: VL of CK129 (CK4 lineage, synthetic library G); flexible linker between VL and VH; VH of CK129; Construct Aga2p-HA-(G4S)3-VL-linker-VH-c-myc; VL-VH orientation; not shown: Aga2p, N-terminal, kept; HA, N-terminal, kept; c-myc, C-terminal, kept
# B3: SA129, mouse serum albumin fused to the CK129 single-chain variable antibody fragment (scFv, V domains shown)
# VH: B2 VH
# VL: B2 VL
# notes: VL of CK129, as in m1; linker between VL and VH; the scFv was amplified from the pCT-CON vector; VH of CK129, as in m1; Construct SA-(G4S)3-scFv-G4S-His6; also called ^NSA-scFv^C; source: HEK293 (suspension-adapted), transient transfection, purified (Ni Sepharose excel, SEC); not shown: mouse serum albumin, N-terminal, kept; His6, C-terminal, kept
# B4: SA157*, separate mouse serum albumin fusions of the VL and VH domains of CK157 mixed in equimolar amounts (other)
# VH: EVQLVESGGGLVQPGGSLRLSCAASGSNPYYYGGTHWVRQAPGEELEWVASIGSYPGYTDYADSVKGRFTISADTSKNTAYLQMNSLRAEDTAVYYCARHYYWYDATDYWGQGTLVTVSS
# VL: DIQMTQSPSSLSASVGDRVTITCRASQSYGGVAWYQQKPGKAPKLLIYSASYLYSGVPSRFSGSRSGTDFTLTISSLQPEDFATYYCQQPSHLITFGQGTEVEIK
# notes: VL of CK157, as in m3; VH of CK157, as in m3; Constructs SA-(G4S)3-VL-G4S-His6 and SA-(G4S)3-VH-G4S-His6; not a single chain with a linker; also called ^NSA-VL^C and ^NSA-VH^C; not shown: mouse serum albumin, N-terminal, kept; His6, C-terminal, kept
# B5: CK157 single-chain variable antibody fragment, displayed on yeast (scFv, V domains shown)
# VH: B4 VH
# VL: B4 VL
# notes: VL of CK157 (CK2 lineage, made by combinatorial site-directed mutagenesis); flexible linker between VL and VH; VH of CK157; Construct Aga2p-HA-(G4S)3-VL-linker-VH-c-myc; VL-VH orientation; not shown: Aga2p, N-terminal, kept; HA, N-terminal, kept; c-myc, C-terminal, kept
# Assays:
# [1] = target: T1, biotinylated hCXCL8 (^NCXCL-G2-AviTag^C) (human, UniProt P10145, biotin on the defined lysine of the AviTag (BirA)); experiment: flow cytometry on cells; competition: biotinylated chemokine at its EC50 with varying antagonist (0.3 nM to 3 μM; 0.003 to 30 μM for SA157*) on HEK293 cells expressing CXCR1 or CXCR2; the antagonist and the chemokine; details: both partners purified
# T1 construct: human CXCL8, active form; Which processed form of CXCL8 (72 or 77 residues) was made is only in Supplementary Data 1; not shown: AviTag, C-terminal, kept; Fc (murine IgG2 CH2 and CH3), N-terminal, cleaved; His6, N-terminal, cleaved
# [2] = target: T2, wild-type hCXCL1 displayed on the surface of yeast as N-terminal fusion of Aga2p (human, UniProt P09341); experiment: flow cytometry on cells; CXC chemokine displayed on yeast (CXCL-Aga2p) titrated with soluble SA-antibody fusions bearing His6, 10 pM to 20 μM, overnight at 4 °C, PBSA washes, anti-His6 detection, binding/display MFI; details: one partner purified
# T2 construct: human CXCL1, active processed form; Construct CXCL-(G3)-c-myc-Aga2p; also called hCXCL1^WT; ^NhCXCL1^WT-Aga2p^C; not shown: c-myc, C-terminal, kept; Aga2p, C-terminal, kept
# [3] = target: T3, mCXCL2 displayed on the surface of yeast as N-terminal fusion of Aga2p (mouse, UniProt P10889); experiment: as above; details: one partner purified
# T3 construct: murine CXCL2, active processed form; Construct CXCL-(G3)-c-myc-Aga2p; also called ^NCXCL-Aga2p^C; not shown: c-myc, C-terminal, kept; Aga2p, C-terminal, kept
# [4] = target: T4, mCXCL1 displayed on the surface of yeast as N-terminal fusion of Aga2p (mouse, UniProt P12850); experiment: as above; details: one partner purified
# T4 construct: murine CXCL1, active processed form; Construct CXCL-(G3)-c-myc-Aga2p; also called ^NCXCL-Aga2p^C; not shown: c-myc, C-terminal, kept; Aga2p, C-terminal, kept
# [5] = target: T5, mCXCL3 displayed on the surface of yeast as N-terminal fusion of Aga2p (mouse, UniProt Q6W5C0); experiment: as above; details: one partner purified
# T5 construct: murine CXCL3, active processed form; Construct CXCL-(G3)-c-myc-Aga2p; also called ^NCXCL-Aga2p^C; not shown: c-myc, C-terminal, kept; Aga2p, C-terminal, kept
# [6] = target: T6, mCXCL5 displayed on the surface of yeast as N-terminal fusion of Aga2p (mouse, UniProt P50228); experiment: as above; details: one partner purified
# T6 construct: murine CXCL5, active processed form; Construct CXCL-(G3)-c-myc-Aga2p; also called ^NCXCL-Aga2p^C; not shown: c-myc, C-terminal, kept; Aga2p, C-terminal, kept
# [7] = target: T7, hCXCL1 fused to the N-terminus of mouse serum albumin (human, UniProt P09341); experiment: flow cytometry on cells; scFv displayed on yeast (Aga2p fusion) titrated with soluble CXCL-SA fusions bearing His6, 10 pM to 2 μM, overnight at 4 °C, PBSA washes, anti-His6 detection, binding/display MFI; details: one partner purified
# T7 construct: human CXCL1, active protein form; CXCL-SA fusions eluted as dimers to tetramers on SEC; also called ^NCXCL-SA^C; source: HEK293 (suspension-adapted), transient transfection, purified (Ni Sepharose excel, SEC); not shown: mouse serum albumin, C-terminal, kept; His6, C-terminal, kept
# [8] = target: T8, mCXCL1 fused to the N-terminus of mouse serum albumin (mouse, UniProt P12850); experiment: as above; details: one partner purified
# T8 construct: murine CXCL1, active protein form; also called ^NCXCL-SA^C; source: HEK293 (suspension-adapted), transient transfection, purified (Ni Sepharose excel, SEC); not shown: mouse serum albumin, C-terminal, kept; His6, C-terminal, kept
# CCL28 = target: T9, CCL28 (human, UniProt Q9NRJ3); experiment: flow cytometry on cells; polyreactivity test: scFv displayed on yeast, single concentration (2 μM) of soluble protein, detection with streptavidin or anti-His6; details: one partner purified
# T9 construct: CC chemokine CCL28; Detected with streptavidin or anti-His6
# chemotactic factor C5a = target: T10, chemotactic factor C5a (Homo sapiens (assumed; species not …, UniProt P01031); experiment: as above; details: one partner purified
# T10 construct: C5a, the chemotactic fragment cut from complement C5; Detected with streptavidin or anti-His6
# CCL20 = target: T11, CCL20 (Homo sapiens (assumed; species not …, UniProt P78556); experiment: as above; details: one partner purified
# T11 construct: CC chemokine CCL20; Detected with streptavidin or anti-His6
# CCL22 = target: T12, CCL22 (human, UniProt O00626); experiment: as above; details: one partner purified
# T12 construct: CC chemokine CCL22; Detected with streptavidin or anti-His6
binder,measurement,setting,value
B1,binding result,[1],binds
same,Kd,[2],~100 nM
same,binding result,[3],binds
same,binding result,[4],binds
same,binding result,[5],binds
same,binding result,[6],binds
B2,Kd,[7],0.79 nM
same,Kd,[8],0.93 nM
B3,Kd,[2],~2.5 nM
same,binding result,[5],no binding (tested: up to 20 μM (methods))
B4,binding result,[1],binds
same,Kd,[2],~1500 nM
B5,binding result,CCL28,binds
same,binding result,chemotactic factor C5a,binds
same,binding result,CCL20,binds
same,binding result,CCL22,binds
